Laboratory results reported in article PMC4108184.

B1: Mag6390 (MAG_6390) (Mycoplasmopsis agalactiae PG2) (protein)
chain: MAKDKFVRTVLGDVPAESIGITDCHDHLIKNGGPEMHEHPDFLMIDVEAAKKEVQEYVDHGGKTIVTMDPPNVGRDVYRMLEIAEAFKGKANIVMSTGFHKAAFYDKYSSWLACVPTDDIVKMMVAEVEEGMDEYNYNGPVVKRSKAKAGIIKAGTGYAAIDRLELKALEVAARTSITTGCPILVHTQLGTMALEVAQHLIGFGANPRKIQLSHLNKNPDRYYYEKIIKETGVTICFDGPDRVKYYPDSLLADHIKYLVDKGLQKHITLSLDAGRILYQRNYGLTKGKETFGLSYLFERFIPLLKQVGVSQEAIDDILINNPREILAFDEPRVYDASKVSSEVVQLKKDLKLL
B2: Ms0025 (MS53_0025) (Mycoplasmopsis synoviae 53) (protein)
chain: MENKFARTVLGDIPVEKLGITDCHDHFIKNGGPEVEEHIDFLMLNVDASIKEFKEFIDRGGSTIVTMDPPNVGRDVLKTLEIANAVKNLGGNVIMSTGFHKAKFYDKYSSWLAVVPTEEIVKMCVAEIEEGMDEYNYNGPVVKRSKAKAGIIKAGTGYGAIDRLELKALEVAARTSILTGCPILVHTQLGTMALEVAKHLIGFGANPDKIQISHLNKNPDKYYYEKVIKETGVTLCFDGPDRVKYYPDSLLAENIKYLVDKGLQKHITLSLDAGRILYQRNYGLTKGKQTFGLAYLFDRFLPLLKQVGVSKEAIFDILVNNPKRVLAFDEKRNFDPLKVSKEVLELKKELNLN

Experiments:
purified protein [1] = substrate: O=C1O[C@H](COP(=O)(O)O)[C@H](O)[C@H]1O; experiment: purified protein; conditions: 2.5 mM Bicine pH 8.3, 0.2 M NaCl, zinc enzyme
purified protein [2] = substrate: O=C1O[C@@H](COP(=O)(O)O)[C@H](O)[C@H]1O; experiment: purified protein; conditions: 2.5 mM Bicine pH 8.3, 0.2 M NaCl, zinc enzyme

Protein | Km (purified protein [1]) [µM] | Km (purified protein [2]) [µM] | kcat (purified protein [2]) [s⁻¹] | kcat/Km (purified protein [2]) [M⁻¹ s⁻¹] | kcat (purified protein [1]) [s⁻¹] | kcat/Km (purified protein [1]) [M⁻¹ s⁻¹]
B1 | 900 ± 100 | 660 ± 60 | 8.7 ± 0.3 | 13000 ± 1000 |  | 
B2 | 500 ± 40 | 300 ± 20 |  |  | 23.4 ± 0.8 | 47000 ± 4000
